Laboratory results from US20190194268A1 (DONALD DANFORTH PLANT SCIENCE CENTER, published 2019).

How the values were obtained:
[1] = tested on: F. graminearum PH-1; assay type: cell-based, Fusarium graminearum; settings: γ-core motif variants
[2] = tested on: F. graminearum; assay type: cell-based, Fusarium graminearum; settings: γ-core motif variants

B1: MtDef5FL1_V1 (other)
chain: KLCQAASTTWSGPCLNTGNCKRQCINVEHATFGACAAQGFGFACFCYKKCAPKKVEPKLCEAASKTWSGPCLISGNCKRQCINVEHATSGACAAQGIGFACFCKKKC
notes: Alanine variant expressed in P. pastoris; also called MtDef5FL1 γ-core motif variant V1
reduction in antifungal activity against F. graminearum relative to wild-type MtDef5FL1 [1]: 4 fold | ability to permeabilize the plasma membrane (SG uptake) compared with wild-type MtDef5FL1 [2]: lost its ability to permeabilize the fungal plasma membrane almost completely
